Here are results for one molecule from patent publication US7819908B2, “Compositions and methods for reducing lung volume” (Aeris Therapeutics, Inc., priority 2002, dated 2010).

The test system of the experiment is sheep. Kind of experiment: Papain-induced emphysema in sheep: lung physiology, plethysmography, CT. Type of experiment: in vivo. The source says:
We examined the safety and utility of trypsin preconditioning for BVR in a group of seven sheep with emphysema generated by prior exposure to papain inhalation. This large animal model of emphysema is one with which we have extensive prior experience.

Where [1] appears, read: papain-induced emphysema, Campbell diagram.

B1: papain: enzyme given by inhalation or instilled bronchoscopically to sheep to generate the emphysema model (protein, UniProt P00784 134-345, looked up)
Papain: IPEYVDWRQKGAVTPVKNQGSCGSCWAFSAVVTIEGIIKIRTGNLNEYSEQELLDCDRRSYGCNGGYPWSALQLVAQYGIHYRNTYPYEGVQRYCRSREKGPYAAKTDGVRQVQPYNEGALLYSIANQPVSVVLEAAGKDFQLYRGGIFVGPCGNKVDHAVAAVGYGPNYILIKNSWGTGWGENGYIRIKRGTGNSYGVCGLYTSSFYPVKN
As for B1, the “tissue density in Houndsfield units measured by CT scanning” value (2 weeks following serial papain exposure) was “significant decrease”. The “recoil pressures at full inflation” value (after papain-induced emphysema, baseline 16.4 cm H2O) amounted to 8.9 cm H2O. For the same molecule, under setting [1], the “change in TLC and RV” value was “significant increase”; the “impact on active or passive chest wall mechanics” value is “no significant impact”. The “lung volume measured by plethysmography” value (papain-treated vs untreated, 2 weeks after serial papain exposure) is “significant increase”. For the setting “post-papain vs baseline”, the “increase in airway resistance” value was 75±16%, the “residual volume (RV) increased” value is 66±21%, the “total lung capacity (TLC) increased” value was 10±3% and the “vital capacity (VC) increased” value is 11±4%. The “increase in total lung resistance (sum of airway and tissue components)” value (post-papain vs baseline, normal respiratory frequencies) is 40±9%.
